Here are results for 1 substance from publication doi:10.1101/2023.12.05.570295.

The target of this assay is mKate2-K67R/R197H, named Diogenes.

As for mKate2-K67R/R197H, named Diogenes, the OSER assay in live HeLa cells (CytERM fusion): whorl-free cells is 87%.
